Broadly, the Kd is the equilibrium constant for the complex coming apart.

The target of assay [1] is Q61L Rac1·[3H]GTP (UniProt P63000). As to the kind of experiment: scintillation proximity assay (competition); competitor titrated into 30 nM [3H]GTP·Rac1 or [3H]GTP·Cdc42 and 30 nM GST-p50 RhoGAP immobilised on fluoromicrospheres via an anti-GST antibody; partial competition model for RLIP76 GAP and didomain, full competition for GAP insert and free p50 RhoGAP. For orientation: SPA uses beads or plates that emit light when radiolabelled molecules are held near them.

In assay [2] the target is Q61L Cdc42·[3H]GTP (UniProt P60953). The description is as above.
Assay [3] concerns the target GST-p50 RhoGAP. As to the kind of experiment: scintillation proximity assay (direct); GST-p50 RhoGAP on SPA beads; [3H]GTP·Cdc42 or [3H]GTP·Rac1 in solution; values used as fixed Kd in the competition fits.
The target in assay [4] is Cdc42 (Homo sapiens) (UniProt P60953). The note with it: cited from earlier work.
The target of assay [5] is Rac1 (Homo sapiens) (UniProt P63000). The note with it: cited from earlier work.

Sequence of Q61L Cdc42·[3H]GTP (P60953 whole entry Q61L): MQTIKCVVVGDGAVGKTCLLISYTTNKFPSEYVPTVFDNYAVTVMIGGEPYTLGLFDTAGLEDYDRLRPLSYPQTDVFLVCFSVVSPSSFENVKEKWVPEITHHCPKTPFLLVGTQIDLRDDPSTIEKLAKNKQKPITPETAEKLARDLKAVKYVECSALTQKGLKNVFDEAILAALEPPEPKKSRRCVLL
Sequence of Cdc42 (Homo sapiens) (P60953 1-188): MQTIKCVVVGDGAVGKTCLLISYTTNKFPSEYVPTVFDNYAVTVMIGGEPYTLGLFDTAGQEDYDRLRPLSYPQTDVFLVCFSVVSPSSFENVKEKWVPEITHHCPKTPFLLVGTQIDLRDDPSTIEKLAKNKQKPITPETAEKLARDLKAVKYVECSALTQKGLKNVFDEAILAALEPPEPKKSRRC

Regarding “His-RLIP76 GAP domain (residues 184-380) (from UniProt Q15311 184-380) (domain or fragment)”, the Kd came to 1680 nM in assay [1] and 6190 nM in assay [2]. Taken in the same sequence, the figures for “His-RLIP76 GAP-GBD didomain (residues 184-446) (from UniProt Q15311 184-446) (domain or fragment)” were 2340 nM and 5590 nM. With “Q61L Cdc42·[3H]GTP (from UniProt P60953 1-191) (natural protein)”, in assay [3], the Kd was found to be 80 nM. For p50 RhoGAP (from UniProt Q07960), the Kd in assay [4] is 24 nM; in assay [5], 18 nM. In the case of “untagged p50 RhoGAP (domain or fragment)”, the Kd was determined as 150 nM in assay [1] and 247 nM in assay [2].

The record behind these values is article PMC3852207.
